Reference: publication PMC12859505

Assays:
[1] = target: HA- and RLuc8-tagged CXCR5 (HA-CXCR5-Rluc8) in ΔQ-GRK HEK293 cells (GRK2/3/5/6 deleted; not phosphorylated by GRKs) (UniProt P32302)
[2] = target: HA- and RLuc8-tagged CXCR5 (HA-CXCR5-Rluc8), CXCL13-stimulated, in cells that express GRKs (GRK-phosphorylated) (UniProt P32302)

B1: CXCL13 (ligand)
chain: VLEVYYTSLRCRCVQESSVFIPRRFIDRIQILPRGNGCPRKEIIVWKKNKSIVCVDPQAEWIQRMMEVLRKRSSSTLPVPVFKRKIP
- potency (EC50) of CXCL13 (1-100 nM) for G protein activation by FLAG-CXCR5 in ΔQ-GRK HEK293 cells: loss of BRET between Gαi1-Rluc8 and Gβ3γ9-GFP2 (TRUEPATH), area under the curve [1]: 0.85 nM
- potency (EC50) of CXCL13 (1-100 nM) for G protein activation by FLAG-CXCR5 in WT HEK293 cells: loss of BRET between Gαi1-Rluc8 and Gβ3γ9-GFP2 (TRUEPATH), area under the curve [2]: 1 nM
